Results: article PMC9478954, “Density Control over MBD2 Receptor-Coated Surfaces Provides Superselective Binding of Hypermethylated DNA”

How the values were obtained:
[1] = molecular target: T1, His10-MBD2 (UniProt Q9UBB5 151-411); experiment: QCM; 500 nM DNA; threshold MBD2 density ~88 ng/cm2; up to 61% of bound DNA irreversible; BB: 50 mM Tris, 350 mM NaCl, 0.1% Triton X-100 (pH and temperature of BB not stated); 500 nM DNA, 30 min, QCM 5th overtone; His10MBD2 loaded at 1 uM in IB (50 mM Tris pH 7.2, 300 mM NaCl, 0.1% beta-mercaptoethanol); conditions: protein: recombinant; tags: N-terminal His10; blunt
[2] = molecular target: T1, His10-MBD2; experiment: QCM; 500 nM DNA; same trend as Mal5C*pG and Mal3C*pG; plateau between them; BB: 50 mM Tris, 350 mM NaCl, 0.1% Triton X-100 (pH and temperature of BB not stated); 500 nM DNA, 30 min, QCM 5th overtone; His10MBD2 loaded at 1 uM in IB (50 mM Tris pH 7.2, 300 mM NaCl, 0.1% beta-mercaptoethanol); conditions: protein: recombinant; tags: N-terminal His10; blunt

T1 sequence (Q9UBB5 151-411): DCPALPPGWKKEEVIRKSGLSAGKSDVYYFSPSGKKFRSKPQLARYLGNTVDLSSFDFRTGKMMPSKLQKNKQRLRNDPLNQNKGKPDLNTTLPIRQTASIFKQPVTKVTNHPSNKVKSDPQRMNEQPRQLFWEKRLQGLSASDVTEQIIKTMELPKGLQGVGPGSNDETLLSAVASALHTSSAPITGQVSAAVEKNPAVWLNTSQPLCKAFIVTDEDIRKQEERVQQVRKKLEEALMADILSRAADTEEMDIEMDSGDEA

B1: Mal5C*pG (dsDNA)
DNA 1: CAGGCAGATGCGCAGCACCAAGCAGAGAGGCCCGGTGCAGGATCCCAGGCCCGAACCAGGCCCGGCTCAGTGGAGCCGGAAGGGGCAGGC
DNA 2: GCCTGCCCCTTCCGGCTCCACTGAGCCGGGCCTGGTTCGGGCCTGGGATCCTGCACCGGGCCTCTCTGCTTGGTGCTGCGCATCTGCCTG
modifications: 5-methyl-C at all CpGs, both strands (M.SssI); top strand C11, C33, C52, C63, C77
binding result [1]: binds

B2: Mal4C*pG (dsDNA)
DNA 1: CAGGCAGATGCGCAGCACCAAGCAGAGAGGCCGGGTGCAGGATCCCAGGCCCCGACCAGGCCAGGCTCAGTGGCGCTGGAAGGGGCAGGC
DNA 2: GCCTGCCCCTTCCAGCGCCACTGAGCCTGGCCTGGTCGGGGCCTGGGATCCTGCACCCGGCCTCTCTGCTTGGTGCTGCGCATCTGCCTG
modifications: 5-methyl-C at all CpGs, both strands (M.SssI); top strand C11, C32, C53, C74
binding result [2]: binds
